Consider one molecule from article PMC6294498, “The structural basis of CstF-77 modulation of cleavage and polyadenylation through stimulation of CstF-64 activity”.

For one data set, the target named is T1, CstF-64 RRM (Homo sapiens, UniProt P33240 1-107).
T1 sequence: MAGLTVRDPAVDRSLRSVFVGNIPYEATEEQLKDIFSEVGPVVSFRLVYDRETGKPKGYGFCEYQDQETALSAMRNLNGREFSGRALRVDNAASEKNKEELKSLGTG
As to the kind of experiment: NMR (1H-15N HSQC titration); 10 mM phosphate pH 6.0, 2 mM TCEP, 30 C; 15N-labeled protein titrated with unlabeled RNA. Conditions: protein: recombinant; tags: His6-TEV, removed by TEV; label: none; single strand.

For data set [1], the target named is T2, CstF-64 RRM-Hinge;CstF-77 MT (MT-CTD lacking last 30 aa) (Homo sapiens;Homo sapiens, UniProt P33240;Q12996 1-195;607-687, |del688-717).
T2 sequence 1: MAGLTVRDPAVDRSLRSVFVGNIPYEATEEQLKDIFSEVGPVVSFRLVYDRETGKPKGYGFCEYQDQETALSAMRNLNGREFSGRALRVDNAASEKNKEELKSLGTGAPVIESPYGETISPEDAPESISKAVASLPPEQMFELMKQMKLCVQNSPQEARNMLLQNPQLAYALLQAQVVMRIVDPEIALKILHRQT
T2 sequence 2: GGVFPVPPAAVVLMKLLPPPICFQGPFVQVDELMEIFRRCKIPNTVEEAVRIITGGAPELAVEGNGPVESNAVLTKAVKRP
The description is as above. Conditions: protein: recombinant;recombinant, tags: His6-TEV, removed by TEV;MBP-TEV, copies: 1;1, label: none, single strand.

Data set [2] concerns the target T3, CstF-64 RRM-Hinge;CstF-77 MT-CTD (Homo sapiens;Homo sapiens, UniProt P33240;Q12996 1-195;607-717, |).
T3 sequence 1: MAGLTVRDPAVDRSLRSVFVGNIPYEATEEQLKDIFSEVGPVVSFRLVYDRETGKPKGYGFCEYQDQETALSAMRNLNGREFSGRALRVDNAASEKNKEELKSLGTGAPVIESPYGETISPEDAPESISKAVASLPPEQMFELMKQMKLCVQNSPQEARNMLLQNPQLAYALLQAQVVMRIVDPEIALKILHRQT
T3 sequence 2: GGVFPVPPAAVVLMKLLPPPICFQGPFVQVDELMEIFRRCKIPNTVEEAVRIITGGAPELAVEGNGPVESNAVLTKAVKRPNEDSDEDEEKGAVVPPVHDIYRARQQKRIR
As to the kind of experiment: NMR (1H-15N HSQC titration); smaller CSPs; last 30 aa of CstF-77 show no significant CSP; 10 mM phosphate pH 6.0, 2 mM TCEP, 30 C; 15N-labeled protein titrated with unlabeled RNA. The settings on record: protein: recombinant;recombinant, tags: His6-TEV, removed by TEV;MBP-TEV, copies: 1;1, label: none, single strand.

The term Kd denotes a measure of binding affinity in units of concentration. In the case of AUUUUAUGUUUCAGGU (ssRNA) [SVL RNA], the results for the equilibrium dissociation constant (Kd) (with CstF-64 RRM; in data set [1]; in data set [2]) were 0.7 ± 0.4 µM, 3.5 ± 1 µM and 3.3 ± 2.3 µM, respectively.
